Experimental data reported in patent publication US20230227838A1, “ENHANCED CELL SURVIVAL AGAINST BIOTIC AND ABIOTIC STRESSES THROUGH SALICYLICK ACID-INDUCED NPR1 CONDENSATES” (priority 2020, published 2023).

B1: HDA15, histone deacetylase 15 (protein, UniProt Q8GXJ1 1-552, looked up)
Histone deacetylase 15: MVVETIERSCEGSKRRHVNGGDIAVPCSGEECSNGDINVAPGVSAKRARVSREMTFEDIYGADALLNDDDDEDDDCDWEPVQAPMEFVKWCCVNCTMSNPGDMVHCCICGEHKESGILRHGYLASPFFKDTGLIEVEEKYGGSSSATSSTAVGFDERMLLHSEFEVKAQPHPERPDRLRAIAASLATAGVFPGRCLPINAREITKQELQMVHTSEHVDAVDTTSQLLYSYFTSDTYANEYSARAARLAAGLCADLATDIFTGRVKNGFALVRPPGHHAGVRHAMGFCLHNNAAVAALVAQAAGAKKVLIVDWDVHHGNGTQEIFEQNKSVLYISLHRHEGGNFYPGTGAADEVGSNGGEGYCVNVPWSCGGVGDKDYIFAFQHVVLPIASAFSPDFVIISAGFDAARGDPLGCCDVTPAGYSRMTQMLGDLCGGKMLVILEGGYNLRSISASATAVIKVLLGENPENELPIATTPSVAGLQTVLDVLNIQLEFWPSLAISYSKLLSELEARLIENKKNQMKRKVVRVPTWWKWGRKKLLYNFLSARMISRSK
B2: RPP1, Disease resistance protein (TIR-NBS-LRR class) family (protein, UniProt F4J339 1-1194, looked up)
Probable disease resistance protein RPP1: MGSVMSLGCSKRKATNQDVDSESRKRRKICSTNDAENCRFIQDESSWKHPWSLCANRVISVAAVALTNFRFQQDNQESNSSSLSLPSPATSVSRNWKHDVFPSFHGADVRRTFLSHIMESFRRKGIDTFIDNNIERSKSIGPELKEAIKGSKIAIVLLSRKYASSSWCLDELAEIMKCRQMVGQIVMTIFYEVDPTDIKKQTGEFGKAFTKTCRGKPKEQVERWRKALEDVATIAGYHSHSWRNEADMIEKISTDVSNMLNSFTPSRDFDGLVGMRAHMDMLEQLLRLDLDEVRMIGIWGPPGIGKTTIARFLFNQVSDRFQLSAIMVNIKGCYPRPCFDEYSAQLQLQNQMLSQMINHKDIMISHLGVAQERLRDKKVFLVLDEVDQLGQLDALAKETRWFGPGSRIIITTEDLGVLKAHGINHVYKVEYPSNDEAFQIFCMNAFGQKQPHEGFDEIAWEVTCLAGELPLGLKVLGSALRGKSKREWERTLPRLKTSLDGKIGSIIQFSYDVLCDEDKYLFLYIACLFNGESTTKVKELLGKFLDVKQGLHLLAQKSLISFDGERIHMHTLLEQFGRETSRKQFVHHGFTKRQLLVGARGICEVLDDDTTDSRRFIGIHLELSNTEEELNISEKVLERVHDFHFVRIDASFQPERLQLALQDLIYHSPKIRSLNWYGYESLCLPSTFNPEFLVELDMRSSNLRKLWEGTKQLRNLKWMDLSYSSYLKELPNLSTATNLEELKLRNCSSLVELPSSIEKLTSLQILDLENCSSLEKLPAIENATKLRELKLQNCSSLIELPLSIGTATNLKQLNISGCSSLVKLPSSIGDITDLEVFDLSNCSSLVTLPSSIGNLQNLCKLIMRGCSKLEALPININLKSLDTLNLTDCSQLKSFPEISTHISELRLKGTAIKEVPLSIMSWSPLADFQISYFESLMEFPHAFDIITKLHLSKDIQEVPPWVKRMSRLRDLSLNNCNNLVSLPQLSDSLDYIYADNCKSLERLDCCFNNPEIRLYFPKCFKLNQEARDLIMHTCIDAMFPGTQVPACFIHRATSGDSLKIKLKESPLPTTLRFKACIMLVKVNEELMSYDQTPMIVDIVIRDEHNDLKEKIYPSIYPSIYPLLTEHIYTFELDVEEVTSTELVFEFPQLNKRNWKIGECGILQRETRSLRRSSSPDLSPESSRVSSYDHCLRGD
B3: RPP5, Disease resistance protein (TIR-NBS-LRR class) (protein, UniProt F4JNB7 1-1449, looked up)
Disease resistance protein RPP5: MAASSSSGRRRYDVFPSFSGVDVRKTFLSHLIEALDGKSINTFIDHGIERSRTIAPELISAIREARISIVIFSKNYASSTWCLNELVEIHKCFNDLGQMVIPVFYDVDPSEVRKQTGEFGKVFEKTCEVSKDKQPGDQKQRWVQALTDIANIAGEDLLNGPNEAHMVEKISNDVSNKLITRSKCFDDFVGIEAHIEAIKSVLCLESKEARMVGIWGQSGIGKSTIGRALFSQLSIQFPLRAFLTYKSTSGSDVSGMKLSWEKELLSEILGQKDIKIEHFGVVEQRLKHKKVLILLDDVDNLEFLKTLVGKAEWFGSGSRIIVITQDRQFLKAHDIDLVYEVKLPSQGLALTMLCRSAFGKDSPPDDFKELAFEVAKLAGHLPLGLNVLGSSLRRRGKKEWMEMMPRLRNGLNGDIMKTLRVSYDRLHQKDQDMFLCIACLFNGFEVSYVKDLLEDNVGLTMLSEKSLIRITPDGHIEMHNLLEKLGREIDRAKSKGNPGKRQFLTNFEDIHEVVTEKTGTETLLGIRLPFEEYFSTRPLLIDKESFKGMRNLQYLKIGDWSDGGQPQSLVYLPLKLRLLDWDDCPLKSLPSTFKAEYLVNLIMKYSKLEKLWEGTLPLGSLKKMNLLCSKNLKEIPDLSNARNLEELDLEGCESLVTLPSSIQNAIKLRKLHCSGVILIDLKSLEGMCNLEYLSVDCSRVEGTQGIVYFPSKLRLLLWNNCPLKRLHSNFKVEYLVKLRMENSDLEKLWDGTQPLGRLKQMFLRGSKYLKEIPDLSLAINLEEVDICKCESLVTFPSSMQNAIKLIYLDISDCKKLESFPTDLNLESLEYLNLTGCPNLRNFPAIKMGCSDVDFPEGRNEIVVEDCFWNKNLPAGLDYLDCLMRCMPCEFRPEYLVFLNVRCYKHEKLWEGIQSLGSLEEMDLSESENLTEIPDLSKATNLKHLYLNNCKSLVTLPSTIGNLQKLVRLEMKECTGLEVLPTDVNLSSLETLDLSGCSSLRTFPLISKSIKWLYLENTAIEEILDLSKATKLESLILNNCKSLVTLPSTIGNLQNLRRLYMKRCTGLEVLPTDVNLSSLGILDLSGCSSLRTFPLISTNIVWLYLENTAIGEVPCCIEDFTRLRVLLMYCCQRLKNISPNIFRLRSLMFADFTDCRGVIKALSDATVVATMEDSVSCVPLSENIEYTCERFWGELYGDGDWDLGTEYFSFRNCFKLDRDARELILRSCFKPVALPGGEIPKYFTYRAYGDSLTVTLPRSSLSQSFLRFKACLVVDPLSEGKGFYRYLEVNFGFNGKQYQKSFLEDEELEFCKTDHLFFCSFKFESEMTFNDVEFKFCCSNRIKECGVRLMYVSQETEYNQQTTRSKKRMRMTSGTSEEYINLAGDQIVADTGLAALNMELSLGEGEASSSTSLEGEALSVDYMITKEQDEDIPFLDPVSDGTWRSFYSAE
B4: TCH4, XTH22, Xyloglucan endotransglucosylase/hydrolase family protein (protein, UniProt Q38857 22-284, looked up)
Xyloglucan endotransglucosylase/hydrolase protein 22: NFQRDVEITWGDGRGQIKNNGELLTLSLDKSSGSGFQSKNEYLFGKVSMQMKLVPGNSAGTVTTLYLKSPGTTWDEIDFEFLGNSSGEPYTLHTNVYTQGKGDKEQQFKLWFDPTANFHTYTILWNPQRIIFTVDGTPIREFKNMESLGTLFPKNKPMRMYSSLWNADDWATRGGLVKTDWSKAPFTASYRGFQQEACVWSNGKSSCPNASKQGTTTGSWLSQELDSTAQQRMRWVQRNYMIYNYCTDAKRFPQGLPKECLAA

molecular target: sim3-GFP (Arabidopsis thaliana) (UniProt P93002); assay: sim3-GFP IP, LC-MS/MS
Sequence (P93002 other isoform, or with tags, fused parts or gaps): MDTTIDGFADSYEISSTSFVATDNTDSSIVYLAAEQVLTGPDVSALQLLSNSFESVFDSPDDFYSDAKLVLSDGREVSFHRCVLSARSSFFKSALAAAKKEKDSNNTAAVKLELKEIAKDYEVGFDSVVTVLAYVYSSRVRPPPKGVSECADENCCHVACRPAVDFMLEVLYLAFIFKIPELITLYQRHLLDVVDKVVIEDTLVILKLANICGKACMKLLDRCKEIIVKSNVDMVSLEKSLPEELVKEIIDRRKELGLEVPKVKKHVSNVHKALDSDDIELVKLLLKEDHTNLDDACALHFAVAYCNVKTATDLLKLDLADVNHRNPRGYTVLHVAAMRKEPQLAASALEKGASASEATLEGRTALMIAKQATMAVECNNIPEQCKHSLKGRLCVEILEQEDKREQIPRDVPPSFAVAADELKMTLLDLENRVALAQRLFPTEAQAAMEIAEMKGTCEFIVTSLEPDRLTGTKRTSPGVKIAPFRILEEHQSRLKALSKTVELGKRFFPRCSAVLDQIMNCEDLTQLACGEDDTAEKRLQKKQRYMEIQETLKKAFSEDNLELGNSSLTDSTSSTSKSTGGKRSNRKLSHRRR

Going from UBQ6, ubiquitin 6 to “Transducin/WD40 repeat-like superfamily protein (AT3G45620)”, the Normalized Fold Change: SA vs Mock rises from 2.04 fold to 3.67 fold.

Compared with “DDB1A, damaged DNA binding protein 1A (from UniProt Q9M0V3 1-1088)”, “DDB1B, damaged DNA binding protein 1B (from UniProt O49552 1-1088)” is higher in Normalized Fold Change: SA vs Mock: 2.52 fold for the first, 1620 fold for the second.

First: FUS11, Proteasome component (PCI) domain protein
Second: CER3, FLP1, WAX2, YRE, Fatty acid hydroxylase superfamily
The Normalized Fold Change: SA vs Mock of the first is lower: 2.75 fold for the first, 3320 fold for the second.

Compared with “Transducin/WD40 repeat-like superfamily protein (AT3G15610)”, HSP70, heat shock protein 70 is higher in Normalized Fold Change: SA vs Mock: 2.26 fold for the first, 4.72 fold for the second.

Going from RNA helicase family protein (AT1G27900) to WAK4, wall associated kinase 4, the Normalized Fold Change: SA vs Mock falls from 1960 fold to 8.98 fold.

Compared with “GSTU19, glutathione S-transferase TAU 19 (from UniProt Q9ZRW8 1-219)”, “AOAT2, GGT2, alanine-2-oxoglutarate aminotransferase 2” is higher in Normalized Fold Change: SA vs Mock: 2.58 fold for the first, 10.5 fold for the second.

First: EDS1, enhanced disease susceptability
Second: P-loop containing nucleoside triphosphate hydrolases superfamily protein (AT3G28510)
The Normalized Fold Change: SA vs Mock of the first is lower: 3.18 fold for the first, 6.35 fold for the second.

First: IMPA1, importin alpha isoform 1
Second: PR1, pathogenesis-related gene 1 (from UniProt P33154 27-161)
The Normalized Fold Change: SA vs Mock of the first is lower: 2.09 fold for the first, 3.65 fold for the second.

Compared with “NAD(P)-binding Rossmann-fold superfamily protein (AT4G13180)”, PLP2, phospholipase A 2A is lower in Normalized Fold Change: SA vs Mock: 5.46 fold for the first, 3.96 fold for the second.

Compared with “S-adenosyl-L-methionine-dependent methyltransferases superfamily protein (AT1G55450)”, “EDA39, calmodulin-binding family protein” is higher in Normalized Fold Change: SA vs Mock: 2.24 fold for the first, 3.1 fold for the second.

Going from “Disease resistance protein (TIR-NBS-LRR class) (AT4G19510)” to SCPL27, serine carboxypeptidase-like 27, the Normalized Fold Change: SA vs Mock rises from 5.17 fold to 5810 fold.

Compared with “TTG1, Transducin/WD40 repeat-like superfamily protein (from UniProt Q9XGN1 1-341)”, EDA10 is lower in Normalized Fold Change: SA vs Mock: 3.34 fold for the first, 2.22 fold for the second.

Going from AT3G47630 to “CTF2B, FAD/NAD(P)-binding oxidoreductase family protein”, the Normalized Fold Change: SA vs Mock falls from 703 fold to 3.15 fold.

Compared with “ATMDAR2, Pyridine nucleotide-disulphide oxidoreductase family protein”, BCS1, cytochrome BC1 synthesis is higher in Normalized Fold Change: SA vs Mock: 2.75 fold for the first, 16 fold for the second.

First: AGD5, NEV, ARF-GAP domain 5
Second: PAD3, Cytochrome P450 superfamily protein (from UniProt Q9LW27 1-490)
The Normalized Fold Change: SA vs Mock of the first is lower: 8.65 fold for the first, 14.6 fold for the second.

First: FAD/NAD(P)-binding oxidoreductase family protein (AT5G22140)
Second: NPR2, NPR1-like protein 2 (from UniProt Q9SZI3 1-600)
The Normalized Fold Change: SA vs Mock of the first is lower: 9.82 fold for the first, 16.7 fold for the second.

Going from “Transducin/WD40 repeat-like superfamily protein (AT3G50590)” to “TOC86, translocon at the outer envelope membrane of chloroplasts 159”, the Normalized Fold Change: SA vs Mock falls from 3400 fold to 3.61 fold.

Compared with “Disease resistance protein (TIR-NBS-LRR class) (AT5G41750)”, “SIRANBP, Pleckstrin homology (PH) domain superfamily protein” is higher in Normalized Fold Change: SA vs Mock: 10.2 fold for the first, 709 fold for the second.

First: OPR1, 12-oxophytodienoate reductase 1
Second: Leucine-rich repeat (LRR) family protein (AT5G45510)
The Normalized Fold Change: SA vs Mock of the first is higher: 4110 fold for the first, 5.05 fold for the second.

Going from B1 to B2, the Normalized Fold Change: SA vs Mock falls from 2570 fold to 13.7 fold.

Compared with B3, B4 is higher in Normalized Fold Change: SA vs Mock: 3.79 fold for the first, 102 fold for the second.
